Laboratory results taken from article PMC11237882 (2024).
Each block holds one binder with its values, some of them ahead of it.

Key:
Experiment in all cases: BLI (SUMO-peptide on tip, monomeric EVH1)
RARA = target: T1, RARA (Homo sapiens (Human), UniProt P10276)
T1 chain: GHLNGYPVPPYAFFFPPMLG

FAT1 = target: T2, FAT1 (Homo sapiens (Human), UniProt Q14517)
T2 chain: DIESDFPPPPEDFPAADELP

APBB1IP_1 = target: T3, APBB1IP_1 (Homo sapiens (Human), UniProt Q7Z5R6)
T3 chain: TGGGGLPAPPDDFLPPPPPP

PCDH15 = target: T4, PCDH15 (Homo sapiens (Human), UniProt Q96QU1)
T4 chain: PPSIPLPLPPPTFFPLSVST

PRRC2B = target: T5, PRRC2B (Homo sapiens (Human), UniProt Q5JSZ5)
T5 chain: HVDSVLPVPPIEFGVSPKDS

DSCAM = target: T6, DSCAM (Homo sapiens (Human), UniProt O60469)
T6 chain: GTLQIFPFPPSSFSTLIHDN

Kd (RARA): 100 µM
Kd (FAT1): 98 µM
Kd (APBB1IP_1): > 150 µM
Kd (PCDH15): > 150 µM
Kd (PRRC2B): 100 µM
B1: HOMER1 (protein)
chain: MGEQPIFSTRAHVFQIDPNTKKNWVPTSKHAVTVSYFYDSTRNVYRIISLDGSKAIINSTITPNMTFTKTSQKFGQWADSRANTVYGLGFSSEHHLSKFAEKFQEFKEAARLA

Kd (RARA): > 150 µM
Kd (DSCAM): > 150 µM
Kd (PRRC2B): > 150 µM
B2: ENAH (protein)
chain: MSEQSICQARAAVMVYDDANKKWVPAGGSTGFSRVHIYHHTGNNTFRVVGRKIQDHQVVINCAIPKGLKYNQATQTFHQWRDARQVYGLNFGSKEDANVFASAMMHALEVLNS
